Assay [1] has as its target MetIN, the E. coli D/L-methionine ABC importer (His-tagged) (Escherichia coli) (UniProt P30750). Briefly: SPR. Background: SPR reads the build-up and loss of mass on a sensor chip optically.
Assay [2] concerns the target T1, BtuCD, the E. coli vitamin B12 ABC transporter (His-tagged) (Escherichia coli, UniProt P06609;P06611).
T1 sequence 1: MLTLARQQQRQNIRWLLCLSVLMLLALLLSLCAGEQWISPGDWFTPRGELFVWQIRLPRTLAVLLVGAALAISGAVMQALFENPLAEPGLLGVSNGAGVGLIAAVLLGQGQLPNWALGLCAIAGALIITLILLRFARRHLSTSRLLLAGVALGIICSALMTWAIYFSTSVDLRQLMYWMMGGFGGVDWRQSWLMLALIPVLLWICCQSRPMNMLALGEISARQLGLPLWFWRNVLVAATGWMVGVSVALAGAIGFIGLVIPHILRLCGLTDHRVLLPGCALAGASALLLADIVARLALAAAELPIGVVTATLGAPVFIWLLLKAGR
T1 sequence 2: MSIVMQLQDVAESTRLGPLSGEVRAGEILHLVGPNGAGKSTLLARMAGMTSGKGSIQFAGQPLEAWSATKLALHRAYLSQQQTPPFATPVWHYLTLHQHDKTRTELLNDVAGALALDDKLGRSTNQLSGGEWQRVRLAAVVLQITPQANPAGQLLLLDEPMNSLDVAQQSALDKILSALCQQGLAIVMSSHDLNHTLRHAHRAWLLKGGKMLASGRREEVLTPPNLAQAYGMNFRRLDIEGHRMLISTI
Description: cell-based or functional assay.

Assay [3] concerns the target T1, BtuCD, the E. coli vitamin B12 ABC …. Briefly: co-sedimentation.

For orientation: Kd means the constant that tells how readily two partners part at equilibrium. A lower Kd goes with higher affinity.

Chain of MetIN, the E. coli D/L-methionine ABC importer (His-tagged) (Escherichia coli) (P30750 whole entry, chain 1 of 2): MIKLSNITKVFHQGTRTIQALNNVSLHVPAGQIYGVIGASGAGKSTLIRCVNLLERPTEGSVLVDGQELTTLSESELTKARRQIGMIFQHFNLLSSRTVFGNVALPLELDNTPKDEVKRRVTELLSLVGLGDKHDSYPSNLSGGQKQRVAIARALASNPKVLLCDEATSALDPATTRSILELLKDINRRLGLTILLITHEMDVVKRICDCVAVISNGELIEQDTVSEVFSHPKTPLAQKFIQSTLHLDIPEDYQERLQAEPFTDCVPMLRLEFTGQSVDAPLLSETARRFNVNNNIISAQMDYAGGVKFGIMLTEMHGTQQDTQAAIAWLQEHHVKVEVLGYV
Chain of MetIN, the E. coli D/L-methionine ABC importer (His-tagged) (Escherichia coli) (P31547 whole entry, chain 2 of 2, further chain): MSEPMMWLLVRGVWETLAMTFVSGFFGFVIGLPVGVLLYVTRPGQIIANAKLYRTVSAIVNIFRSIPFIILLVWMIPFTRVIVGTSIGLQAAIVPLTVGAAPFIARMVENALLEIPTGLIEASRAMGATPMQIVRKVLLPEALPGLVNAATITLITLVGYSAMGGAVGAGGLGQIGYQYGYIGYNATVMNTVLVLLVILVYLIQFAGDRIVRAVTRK

On to “MetQ, the binding protein of the E. coli D/L-methionine importer (from UniProt P28635 23-271) (natural protein)”, for which, in assay [1], the Kd came to 74 µM.

B1: BtuF, the vitamin B12 binding protein of E. coli, with a C-terminal FLAG tag (natural protein)
chain: APRVITLSPANTELAFAAGITPVGVSSYSDYPPQAQKIEQVSTWQGMNLERIVALKPDLVIAWRGGNAERQVDQLASLGIKVMWVDATSIEQIANALRQLAPWSPQPDKAEQAAQSLLDQYAQLKAQYADKPKKRVFLQFGINPPFTSGKESIQNQVLEVCGGENIFKDSRVPWPQVSREQVLARSPQAIVITGGPDQIPKIKQYWGEQLKIPVIPLTSDWFERASPRIILAAQQLCNALSQVD
Regarding B1, in assay [2], the “stimulation of ATP hydrolysis rate of BtuCD” value is under 2 fold. In assay [3], this molecule gave a Kd of under 0.02 µM.

(Values after PMC2924745 (Nature structural & molecular biology, 2010).)
